US20260265403A1 (TJ BIOPHARMA SHANGHAI, published 2026)
Substitutions are numbered along the chain they refer to.

T1: human CD24 on cells (human, UniProt P25063 27-59)
T1 chain (looked up): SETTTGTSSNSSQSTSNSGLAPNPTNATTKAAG

B1: 62-F7E9, IgG4, Kappa (antibody, V domains shown)
VH: QVQLQQPGAELVKPGASVKLSCKASGYTSTSYWLHWVKQRPGRGLEWIGRIDPNSGETKFNEKFKSQATLTVDKPSSTAYMQLNSLTSEDSAVYYCALYYYGSILFDYWGQGTTLTVSS
VL: ENVLTQSPAIMSASPGEKVTMTCRTSSIISSGFLHWYQQKSGASPKLWIYSTSNLASGVPARFSGSGSGTSYSLTISSVEAEDAATYYCQQYSGHPLTFGAGTKLELK
B2: 45-H1E4, IgG4, Kappa (antibody, V domains shown)
VH: QIQLVQSGPELKKPGETVKISCKASGYTFTTYGMSWMKQAPGKGLKWMGWINTYSGVPAYADDFKGRFAFSLDTSASTAYLQINNLKNEDTATYFCARSGYPWSPHSYSTDYWGQGISVTVSS
VL: DVLLTQTPLSLPVSLGDQASISCKSSQSIVHSNGNTYLEWYLQKPGQSPKRLIYKVSNRFSGVPDRFSGSGSGTDFTLKISRVEAEDLGVYYCFQGSHVPWTFGGGTKLEIK
B3: 66-D1B10, IgG4, Kappa (antibody, V domains shown)
VH: EVRLEESGGGFVQPGGSMKLSCVASGLTFPNHWMNWVRQSPERGLAWVAQIQLKSDNYATRYVESVKGRFTISRDDSESTVYLQMNNLRAEDTGIYYCTTGTDYWGQGTTLTVSS
VL: not shown
B4: 90-D11B6, IgG1, Kappa (antibody, V domains shown)
VH: EVQLQQSGPELVKPGASVRISCKASGYSFTGYYMNWVKQSPEKNLEWIGEINPITGGSTYNQKFVAKATLTVDRSSSTAYMQLKSLTSEDSAVYYCTRRDYDTSLDYWGQGTTLTVSS
VL: DVQITQSPSYLAASPGETITINCRASKSISKYLAWYQEKPGKTIKLLIYAGSTLQSGIPSRFSGSGYGTDFTLTISSLEPEDFAMYYCQQHNEYPLTFGAGTKLELK
B5: 63-B10B9, IgG1, Kappa (antibody, V domains shown)
VH: B4 VH with R19K, N44S, S58T, V65R, R98K, T115I
VL: B4 VL with S14F, S30K, I44N, K45N, A50S, Y67T
B6: 63-B10B9, IgG4, Kappa (antibody, V domains shown)
VH: B4 VH with R19K, N44S, S58T, V65R, R98K, T115I
VL: B4 VL with S14F, S30K, I44N, K45N, A50S, Y67T
B7: 75-H8B9, IgG1, Kappa (antibody, V domains shown)
VH: EVNLEESGGGLVQPGGSRQLSCVASGLTFSKHWMNWVRQSPDKGLEWVAQIQLKSDNYAIRYVDSVKGRFTISRDDSENTVYLQMNNLRAEDTGIYYCTTGTDYWGQGTTLTVSS
VL: not shown
B8: 70-F4E5, IgG1, Kappa (antibody, V domains shown)
VH: B7 VH
VL: not shown
B9: 70-F4E5, IgG4, Kappa (antibody, V domains shown)
VH: B7 VH
VL: not shown
B10: 66-D1B10, IgG1, Kappa (antibody, V domains shown)
VH: B3 VH
VL: not shown
B11: 65-F3C7, IgG1, Kappa (antibody, V domains shown)
VH: B3 VH with P41L, E78K, A90P
VL: not shown
B12: 65-F3C7, IgG4, Kappa (antibody, V domains shown)
VH: B3 VH with P41L, E78K, A90P
VL: not shown

Molecular target: T1, human CD24 on cells
Test: cell-based or functional assay

Binder	EC50 of Phagocytosis assay, IgG4, Kappa; HEK293-CD24	EC50 of Phagocytosis assay, IgG4, Kappa; MCF-7	EC50 of Phagocytosis assay, IgG4, Kappa; NALM6	EC50 of Phagocytosis assay, IgG4, Kappa; OVCAR3	EC50 of Phagocytosis assay, IgG1, Kappa; HEK293-CD24	EC50 of Phagocytosis assay, IgG1, Kappa; MCF-7	EC50 of Phagocytosis assay, IgG1, Kappa; NALM6	EC50 of Phagocytosis assay, IgG1, Kappa; OVCAR3
B1	10.5 µg/mL	0.21 µg/mL	0.01 µg/mL	1.41 µg/mL	–	–	–	–
B2	0.9 µg/mL	7 µg/mL	5.36 µg/mL	3.35 µg/mL	–	–	–	–
B3	3.09 µg/mL	2.26 µg/mL	6.28 µg/mL	5.77 µg/mL	–	–	–	–
B4	–	–	–	–	1.31 µg/mL	1 µg/mL	1.19 µg/mL	0.59 µg/mL
B5	–	–	–	–	7.02 µg/mL	1.06 µg/mL	1.91 µg/mL	0.56 µg/mL
B6	1.14 µg/mL	17.1 µg/mL	6.16 µg/mL	9.85 µg/mL	–	–	–	–
B7	–	–	–	–	0.08 µg/mL	0.44 µg/mL	1.16 µg/mL	0.14 µg/mL
B8	–	–	–	–	0.04 µg/mL	0.7 µg/mL	0.61 µg/mL	0.15 µg/mL
B9	0.21 µg/mL	0.84 µg/mL	0.63 µg/mL	5.61 µg/mL	–	–	–	–
B10	–	–	–	–	7.46 µg/mL	0.84 µg/mL	2.48 µg/mL	0.73 µg/mL
B11	–	–	–	–	0.75 µg/mL	0.4 µg/mL	2.01 µg/mL	0.23 µg/mL
B12	0.09 µg/mL	2.25 µg/mL	6.01 µg/mL	5.74 µg/mL	–	–	–	–
